In doi:10.1101/2025.05.13.653872, “A novel non-catalytic function of PA2803-encoded PcrP contributes to polymyxin B resistance in P. aeruginosa and redefines the functional role of the PA2803 subfamily” (bioRxiv, 2025):

Target: the molecule itself
Test: cross-linking; 50 μM purified PcrP with 0.02, 0.05, 0.1 and 0.2% glutaraldehyde for 2 min in 50 mM NaCl, 1% glycerol, 20 mM HEPES pH 7.8; stopped with Tris-HCl pH 8.0; 12% SDS-PAGE, Coomassie

B1: 6XHis-PcrP (PA2803), recombinant, purified (natural protein)
chain: MPSSDQLPRFTALLFGLSGGLVDFGARTLSLALLRSHPHSPAEHLRDASLLPFAEAQSFLLRRKPNKSERQRLEQALDEAAGEQAEAIAGAVALLESLDEQRIPYAWQDELPESVCQRLAAPLGRANALIPLAGARPWPAPDGCWQALARLGIERLDGCVLVSAQPRQLQAGLNAGLWTIGLAASGPSCGLSPADWDALGHTERDRLRADATLELYRLGVHSVIDHLGELQPCLHDLAVRRLKGEKP
notes: PcrP (PA2803), P. aeruginosa PAO1; No tag cleavage step is described; The reverse primer carries the stop codon, so the His tag of the vector should be N-terminal; also called 6XHis-PA2803; pAAK001; source: E. coli BL21(DE3), purified (Ni-NTA)
B1 was tested, and the “stoichiometry N” value was 2.
